Measurements published in paper PMC5758809.

What was measured:
native PP1 (rabbit) = native PP1 (rabbit) (UniProt P62139)
recombinant PP1 = recombinant PP1 (UniProt P62139)

Chain of UniProt P62139 (P62139 whole entry): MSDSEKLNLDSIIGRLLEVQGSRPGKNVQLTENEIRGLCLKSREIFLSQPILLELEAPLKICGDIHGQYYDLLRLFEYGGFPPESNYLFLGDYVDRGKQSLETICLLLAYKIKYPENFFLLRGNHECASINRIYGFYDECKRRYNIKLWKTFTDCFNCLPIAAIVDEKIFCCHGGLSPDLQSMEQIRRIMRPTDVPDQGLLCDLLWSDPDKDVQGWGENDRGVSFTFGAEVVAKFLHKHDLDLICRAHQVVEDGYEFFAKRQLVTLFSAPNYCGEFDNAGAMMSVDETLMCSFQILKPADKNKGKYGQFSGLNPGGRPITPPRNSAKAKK

| Binder | IC50 for inhibition of native PP1 phosphatase activity ([32P]phosphorylase a as substrate) (native PP1 (rabbit)) | IC50 for inhibition of recombinant PP1 phosphatase activity ([32P]phosphorylase a as substrate) (recombinant PP1) |
| --- | --- | --- |
| PKA-thiophosphorylated form of inhibitor-1 (natural protein, thiophosphorylated Thr35) MEQDNSPRKIQFTVPLLEPHLDPEAAEQIRRRRPTPATLVLTSDQSSPEIDEDRIPNPHLKSTLAMSPRQRKKMTRITPTMKELQMMVEHHLGQQQQGEEPEGAAESTGTQESRPPGIPDTEVESRLGTSGTAKKTAECIPKTHERGSKEPSTKEPSTHIPPLDSKGANSV | 19 nM | 980 nM |
| PKA-thiophosphorylated form of inhibitor-1[I10A;F12A] (natural protein, thiophosphorylated Thr35) MEQDNSPRKAQATVPLLEPHLDPEAAEQIRRRRPTPATLVLTSDQSSPEIDEDRIPNPHLKSTLAMSPRQRKKMTRITPTMKELQMMVEHHLGQQQQGEEPEGAAESTGTQESRPPGIPDTEVESRLGTSGTAKKTAECIPKTHERGSKEPSTKEPSTHIPPLDSKGANSV | 240 nM | 553 nM |
